According to the supplement of paper PMC9170038:

Test system: MS2 coat protein
Assay: apparent KD of MS2 coat protein; higher = weaker reporter binding
Conditions: Eterna round: R107
Outline: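 Designed RNA switches, transcribed on-chip from Illumina sequencing clusters, were titrated with SNAP-549-labelled MS2 coat protein from 0.7 or 1.5 nM to 3 µM in twofold steps. The solution was 100 mM Tris-HCl pH 7.5, 80 mM KCl, 4 mM MgCl2, with constant ligand or without it. Apparent KD is the median over each design's normalised cluster binding-curve fits.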

[1] = input ligand: theophylline 20 uM
[2] = input ligand: tryptophan 2.4 mM
[3] = input ligand: theophylline 2 mM

| Sequence | apparent KD of MS2 coat protein (input ligand: arginine 13.2 mM) | apparent KD of MS2 coat protein [1] | apparent KD of MS2 coat protein [2] | apparent KD of MS2 coat protein [3] | apparent KD of MS2 coat protein (input ligand: none) |
| --- | --- | --- | --- | --- | --- |
| UACAUGAGGAUCACCCAUGUAUGAAUGGAUACCAGAUAAAAUAAGGUCCCUUGGCAGCUAGUGAAUCGAGGGUGGGUAUCAUGUU [#14 Exclusion-TheophyllineA] | 10.9 nM | 13.7 nM | 9.89 nM |  |  |
| UACUGUCUAACGGCCGCCACUCAGUCUCGGUUGAUUAUCUUAAGUGACAUGAGGAUCACCCAUGUGAGGACCGGGUUGUGCAUAA [theeternabot_exclusion_MS2_Trp_B_40] | 60.4 nM | 91.3 nM |  | 96.7 nM |  |
| UAUAUAUAUCACUAACUGUUCUUGAGGUCUCGAGGACCGGUACGGCCGCCACUCGUACCGCCUCACAUGAGGAUCACCCAUGUCC [XTryp A #1] | 52.2 nM | 85.5 nM |  | 97.6 nM |  |
| UAUCCACAUGAGGAUCACCCAUGUAGGGAAGGAGCGGUGGAUGCACCAGGUAGGUCGCCUUGCUGAGGACAGCCGGUGGAUUCGU [Exclusion - Arginine A (Freestyle 27)] | 29 nM | 59.6 nM | 32.8 nM | 46.7 nM | 31.9 nM |
| UAUCCACAUGAGGAUCACCCAUGUUAGGAAGGAGCGGUGAAUGAACCAGGUAGGUCGCCUAGCUGAGGACUGUCGAUGGAUUCGU [Exclusion - Arginine A (Freestyle 17)] | 13.4 nM | 28.2 nM | 20.5 nM | 24.5 nM | 18.1 nM |
| UAUCCACAUGAGGAUCACCCAUGUUAGGAAGGAGCGGUGAAUGAACCAGGUAGGUCGCCUAGGUGAGGAUCAUCUAUGGAUUCGU [Exclusion - Arginine A (Freestyle 11)] | 30 nM | 37.3 nM | 31.7 nM | 38.3 nM | 30.2 nM |
| UAUCGUCAGACGGCCGCCACUAGAACAUGAGGAUCACCCAUGUACGGCCGCUCGGUCCUCAUGACUAGGACCGGGUCUGACGAAU [(Trp1)-(Ms2)-(T)'-(M)'-(Trp2)_Design22] | 10.8 nM | 16.9 nM | 9.96 nM | 12 nM | 7.31 nM |
| UAUCGUCAGACGGCCGCCACUAGAACAUGAGGAUCACCCAUGUAGGCGGCCGAUUCCUCAUUAACUAGGACCGGGUCUGACGAAU [(Trp1)-(Ms2)-(T)'-(M)'-(Trp2)_Design11] | 11.5 nM | 15.9 nM |  | 9.76 nM |  |
| UAUUAUCAGUCGGCCGCCACUGACACAUGAGGAUCACCCAUGUAAUUUGGGUUAUAUAGAAAAUACAGGACCGGGACUAAGGCUA [JR_ExcTryptoB_Sub014] | 87.5 nM | 324 nM |  | 326 nM |  |
| UAUUAUCAGUCGGCCGCCACUGACACAUGAGGAUCACCCAUGUAAUUUGGGUUAUAUAUAAAUUACAGGACCGGGACAAAGGCUA [JR_ExcTryptoB_Sub013] | 114 nM | 318 nM |  | 396 nM |  |
| UAUUAUCAGUCGGCCGCCACUGACACAUGAGGAUCACCCAUGUAAUUUGGGUUAUAUAUAAAUUACAGGACCGGGACAAAUGCUA [JR_Nu13_ExcTryptoB_Sub025] | 161 nM | 366 nM |  | 368 nM |  |
| UAUUAUCAGUCGGCCGCCACUGUCACAUGAGGAUCACCCAUGUAACUUGGGUUAUAUUUAAUAUACAGGACCGGGACAAAGGCUA [JR_ExcTryptoB_Sub012] | 61.5 nM | 76.6 nM |  | 66.8 nM |  |
| UCAAUAAUUAGAUUGUUACAUGUAUCAGAAGGAGCGUGAGUAAUCACAGGUAGGUCGCUGUUAACAUGAGGAUCACCCAUGUUUU [JR_ExcArginiA_Sub009] | 31.2 nM | 43.6 nM | 36.8 nM | 39.2 nM | 40.9 nM |
| UCACAUGAGGAUCACCCAUGUACAGGCGAUACCAGCCGUACAUUGGGCCCUUGGCAGCGCAUCGAGACCUUUAUAAGCACCUCGG [Ceusbi] | 24.5 nM | 127 nM | 81.6 nM |  |  |
| UCACAUGAGGAUCACCCAUGUCAUGUUGAAGGAGCGACCAGGAGGUCAGGUAGGUCGCAACACAUGAGGAUCACCCAUGUGGCCC [Qetesh] | 87.5 nM | 119 nM | 149 nM | 159 nM | 172 nM |
| UCACGAGGCCUGGAUACCAGCGACAUGAGGAUCACCCAUGUAUGAGGAUCAGCCAUGUUAUGCCCUUGGCAGCCACGAAGGUCAU [XZZMULLIN] | 14.5 nM | 26.5 nM | 15.8 nM |  |  |
| UCAUUUUUCACGGCCGCCACUUCAAGGUCCUGAGGCUGGGCAACACAUGAGGAUCACCCAUGUCGAAGGACCGGGUGAAGCUACC [theeternabot_sameState_MS2_Trp_B_34] | 152 nM | 248 nM |  | 527 nM |  |
| UCCAUCGGCGGAAGCCGAUGGUUUACAGAAGGAGCGUAGGAAACUACAGGUAGGUCGCUGGACAUGAGGAUCACCCAUGUGUUUU [SSAA #12] | 24.4 nM | 22.4 nM | 20.8 nM | 30 nM | 26.5 nM |
| UCGCCCGGGUCGGCCGCCACUGAGGUGAUAUGACAUGAGGAUCACCCAUGUUGUCAUGUGGAACAUAGGACCGGGACCCGGGCGA [Exclusion - Tryptophan B Attempt #2 (HarryS)] | 15.7 nM | 47.6 nM | 17.8 nM | 19.6 nM | 18.5 nM |
